Laboratory results published in patent US7390645B2, “Lactose repressor proteins with increased operator DNA binding affinity” (William Marsh Rice University, priority 1997, dated 2008).
Entries after “also recorded” stand apart in the source; their conditions may differ. Like-named read-outs stand apart in the source and are kept apart here.

Legend:
[1] = biological target: O^1 operator sequences (lac operator DNA); assay: lac operator DNA binding of lac repressor proteins characterized in vitro; set-up: species or system E. coli; conditions: for affinity for lac operator DNA (in words): relative to wild-type lac repressor unless stated
Text: The term “affinity”, as used in conjunction with the lac operator or an inducer ligand, is defined as 1/Kd, where Kd is the concentration of DNA or ligand required to occupy 50% of the available binding sites.
(§1) To test an altered lac repressor protein, the coding sequence for the altered lac repressor protein can be cloned into an expression vector. The expression vector can then be placed into bacterial or eukaryotic cells containing a reporter gene under lac operator control to test for an active repressor protein. For example, a reporter containing E. coli β-galactosidase (encoded by lacZ) has been constructed by excising the lacZ gene under control of the lac operator from the plasmid pCR2.1 (Invitrogen) and inserting it into plasmid pACYC184 (New England Biolabs). This new composite reporter plasmid is named pZCam and can be co-transformed or electroporated into bacteria with the plasmids containing the coding sequences of altered lac repressor proteins. Host cells for these plasmids should have neither lactose repressor nor β-galactosidase proteins (i.e., the cells are lacI^− lacZ^−). Next, these bacteria are plated in the presence of either methyl umbelliferyl-β-D-galactoside (MUG) or 5-bromo-4-chloro-3-indolyl-β,D-galactoside (X-gal) as indicators to determine whether an active repressor protein is present (white colonies). In the presence of an inducer sugar, colonies containing inducer-responsive repressor protein will be fluorescent (MUG) or blue (X-gal). Alternatively, the coding sequence can be cloned into any expression vector known in the art and transformed into E. coli that are lacI^−, preferably ΔlacI, and lacpOz^+. The lacpOz region can be on a different, but compatible, plasmid or in the bacterial genome. Colonies containing active repressor protein will be white in the absence of an inducer and fluorescent (MUG) or blue (X-gal) in the presence of an inducer. Specific amino acid changes that result in increased operator binding affinity or enhanced ligand responsivity can be determined. LacI derivatives with appropriate properties are then isolated and characterized in vitro for their (a) O^1 operator DNA binding properties in the absence and presence of the appropriate inducer ligand and (b) inducer ligand binding properties in the absence and presence of operator DNA. Purified proteins can be obtained by standard protein purification methods known to those of skill in the art.

[2] = responsivity of lac repressor proteins to inducer ligand; format: biochemical, E. coli; conditions: relative to wild-type lac repressor
Text: as §1
Mutants can be screened by phenotypic analysis as described above. In the preferred forms, the plasmid containing the gene for altered lac repressor protein is either co-transformed with the reporter plasmid pZCam or is transformed into E. coli that are ΔlacI and lacpOz^+. Introduction of wild-type lac repressor protein into bacteria containing pZCam or into the ΔlacI/lacpOz^+ bacteria results in white colonies in the presence of MUG or X-gal. In contrast, in the presence of IPTG or the alternative ligand, the colonies are fluorescent (MUG) or blue (X-gal). […]

[3] = system: O^1 operator sequences (lac operator DNA); conditions: relative to wild-type lac repressor; cited from earlier work
[4] = reduced form; cited from earlier work
[5] = read-out: Kd for O^1 operator sequences

B1: Gln60Gly: altered lac repressor protein with glycine substituted for glutamine at amino acid number 60; SEQ ID NO:2 (protein, listed as Escherichia coli)
chain: MKPVTLYDVAEYAGVSYQTVSRVVNQASHVSAKTREKVEAAMAELNYIPNRVAQQLAGKGSLLIGVATSSLALHAPSQIVAAIKSRADQLGASVVVSMVERSGVEACKAAVHNLLAQRVSGLIINYPLDDQDAIAVEAACTNVPALFLDVSDQTPINSIIFSHEDGTRLGVEHLVALGHQQIALLAGPLSSVSARLRLAGWHKYLTRNQIQPIAEREGDWSAMSGFQQTMQMLNEGIVPTAMLVANDQMALGAMRAITESGLRVGADISVVGYDDTEDSSCYIPPLTTIKQDFRLLGQTSVDRLLQLSQGQAVKGNQLLPVSLVKRKTTLAPNTQTASPRALADSLMQLARQVSRLESGQ
With B1 the Kd ([1]; presence of 1 mM IPTG, read-out: Kd for O^1 operator sequences in the presence of 1 mM IPTG) was > 100 nM, the Kd [1, 5] was 0.004 nM and the “affinity for lac operator DNA (in words)” value [1] was “increased affinity for operator sequences”. The “responsivity to inducer (in words)” value [2] was “close to normal responsivity to inducer”.

B2: wild-type LacI: naturally occurring E. coli lac repressor protein (LacI); SEQ ID NO:1 (protein, listed as Escherichia coli)
chain: MKPVTLYDVAEYAGVSYQTVSRVVNQASHVSAKTREKVEAAMAELNYIPNRVAQQLAGKQSLLIGVATSSLALHAPSQIVAAIKSRADQLGASVVVSMVERSGVEACKAAVHNLLAQRVSGLIINYPLDDQDAIAVEAACTNVPALFLDVSDQTPINSIIFSHEDGTRLGVEHLVALGHQQIALLAGPLSSVSARLRLAGWHKYLTRNQIQPIAEREGDWSAMSGFQQTMQMLNEGIVPTAMLVANDQMALGAMRAITESGLRVGADISVVGYDDTEDSSCYIPPLTTIKQDFRLLGQTSVDRLLQLSQGQAVKGNQLLPVSLVKRKTTLAPNTQTASPRALADSLMQLARQVSRLESGQ
B2 gave a Kd [1, 5] of 0.012 nM.

B3: Val52Cys: mutation of lac repressor amino acid 52 from Val to Cys (protein)
chain: MKPVTLYDVAEYAGVSYQTVSRVVNQASHVSAKTREKVEAAMAELNYIPNRCAQQLAGKQSLLIGVATSSLALHAPSQIVAAIKSRADQLGASVVVSMVERSGVEACKAAVHNLLAQRVSGLIINYPLDDQDAIAVEAACTNVPALFLDVSDQTPINSIIFSHEDGTRLGVEHLVALGHQQIALLAGPLSSVSARLRLAGWHKYLTRNQIQPIAEREGDWSAMSGFQQTMQMLNEGIVPTAMLVANDQMALGAMRAITESGLRVGADISVVGYDDTEDSSCYIPPLTTIKQDFRLLGQTSVDRLLQLSQGQAVKGNQLLPVSLVKRKTTLAPNTQTASPRALADSLMQLARQVSRLESGQ
For B3, the “affinity for lac operator DNA (in words), from cited work” value [3] is listed as “increased affinity for the lac operator DNA” and the “response to inducer (in words), from cited work” value [4] is listed as “normal response to inducer in reduced form”.

B4: Gln55Glu: Gln55Glu mutant of the lac repressor (protein)
chain: MKPVTLYDVAEYAGVSYQTVSRVVNQASHVSAKTREKVEAAMAELNYIPNRVAQELAGKQSLLIGVATSSLALHAPSQIVAAIKSRADQLGASVVVSMVERSGVEACKAAVHNLLAQRVSGLIINYPLDDQDAIAVEAACTNVPALFLDVSDQTPINSIIFSHEDGTRLGVEHLVALGHQQIALLAGPLSSVSARLRLAGWHKYLTRNQIQPIAEREGDWSAMSGFQQTMQMLNEGIVPTAMLVANDQMALGAMRAITESGLRVGADISVVGYDDTEDSSCYIPPLTTIKQDFRLLGQTSVDRLLQLSQGQAVKGNQLLPVSLVKRKTTLAPNTQTASPRALADSLMQLARQVSRLESGQ
For B4, the “affinity for lac operator DNA (in words), from cited work” value [3] is listed as “decreased affinity for lac operator DNA”.

B5: Pro320Ala: lac repressor protein Pro320Ala identified by random mutagenesis and phenotypic screening (protein)
chain: MKPVTLYDVAEYAGVSYQTVSRVVNQASHVSAKTREKVEAAMAELNYIPNRVAQQLAGKQSLLIGVATSSLALHAPSQIVAAIKSRADQLGASVVVSMVERSGVEACKAAVHNLLAQRVSGLIINYPLDDQDAIAVEAACTNVPALFLDVSDQTPINSIIFSHEDGTRLGVEHLVALGHQQIALLAGPLSSVSARLRLAGWHKYLTRNQIQPIAEREGDWSAMSGFQQTMQMLNEGIVPTAMLVANDQMALGAMRAITESGLRVGADISVVGYDDTEDSSCYIPPLTTIKQDFRLLGQTSVDRLLQLSQGQAVKGNQLLAVSLVKRKTTLAPNTQTASPRALADSLMQLARQVSRLESGQ
With B5 the “operator DNA affinity relative to wild-type lac repressor” value ([1]; higher affinity than wild-type) was 10 fold, the “affinity for lac operator DNA (in words)” value [1] was “increased DNA affinity” and the “responsivity to inducer (in words)” value [2] was “normal inducer responsivity; also recorded: wild-type inducer responsivity”.

B6: Leu148Phe (protein)
chain: MKPVTLYDVAEYAGVSYQTVSRVVNQASHVSAKTREKVEAAMAELNYIPNRVAQQLAGKQSLLIGVATSSLALHAPSQIVAAIKSRADQLGASVVVSMVERSGVEACKAAVHNLLAQRVSGLIINYPLDDQDAIAVEAACTNVPALFFDVSDQTPINSIIFSHEDGTRLGVEHLVALGHQQIALLAGPLSSVSARLRLAGWHKYLTRNQIQPIAEREGDWSAMSGFQQTMQMLNEGIVPTAMLVANDQMALGAMRAITESGLRVGADISVVGYDDTEDSSCYIPPLTTIKQDFRLLGQTSVDRLLQLSQGQAVKGNQLLPVSLVKRKTTLAPNTQTASPRALADSLMQLARQVSRLESGQ
With B6 the “affinity for lac operator DNA (in words)” value [1] was “slightly diminished DNA affinity; also recorded: diminished affinity for operator sequences” and the “responsivity to inducer (in words)” value [2] was “enhanced responsivity to IPTG”.

B7: Gln60Gly/Leu148Phe (protein)
chain: MKPVTLYDVAEYAGVSYQTVSRVVNQASHVSAKTREKVEAAMAELNYIPNRVAQQLAGKGSLLIGVATSSLALHAPSQIVAAIKSRADQLGASVVVSMVERSGVEACKAAVHNLLAQRVSGLIINYPLDDQDAIAVEAACTNVPALFFDVSDQTPINSIIFSHEDGTRLGVEHLVALGHQQIALLAGPLSSVSARLRLAGWHKYLTRNQIQPIAEREGDWSAMSGFQQTMQMLNEGIVPTAMLVANDQMALGAMRAITESGLRVGADISVVGYDDTEDSSCYIPPLTTIKQDFRLLGQTSVDRLLQLSQGQAVKGNQLLPVSLVKRKTTLAPNTQTASPRALADSLMQLARQVSRLESGQ
For B7, the “affinity for lac operator DNA (in words)” value [1] was “increased affinity for operator sequence compared to Leu148Phe (affinity comparable to wild-type lac repressor)” and the “responsivity to inducer (in words)” value [2] was “enhanced inducer responsivity comparable to Leu148Phe”.
